Results: patent US20220024981A1 (Novartis, published 2022)
Bridge positions count the residues as written; N and C are the ends. Square brackets hold non-standard residues; d marks the D form. Bip = N[C@@H](Cc1ccc(-c2ccccc2)cc1)C(=O)O; NMeA = CN[C@@H](C)C(=O)O

Molecular target: T1, Human PCSK9 Alexa Fluor 647 (human, UniProt Q8NBP7 31-692, limits assumed, Alexa Fluor 647 label (site not stated))
T1 construct: Labelled tracer of the TR-FRET assay, 16 nM stock; also called proprotein convertase subtilisin/kexin type 9
Assay: TR-FRET competition: PCSK9-Alexa Fluor 647 vs LDLR ECD-Eu kryptate
Experimental: A Proxi plate-low volume assay plate was used for the assay. […] Following a 30 minute incubation, 5 uL of 4 nM Human LDLR extracellular domain-Europium Kryptate was added and the mixture was incubated for an additional 2 hours.
The TR-FRET signal was measured on an EnVision or PheraStar instrument with a 60 μs delay, 330 nm excitation and 665 nm emission (FRET), and 330 nm excitation and 615 nm (Europium). The FRET ratio (FRET/Europium) was used for calculations.

T1 sequence (Q8NBP7 31-692 limits assumed): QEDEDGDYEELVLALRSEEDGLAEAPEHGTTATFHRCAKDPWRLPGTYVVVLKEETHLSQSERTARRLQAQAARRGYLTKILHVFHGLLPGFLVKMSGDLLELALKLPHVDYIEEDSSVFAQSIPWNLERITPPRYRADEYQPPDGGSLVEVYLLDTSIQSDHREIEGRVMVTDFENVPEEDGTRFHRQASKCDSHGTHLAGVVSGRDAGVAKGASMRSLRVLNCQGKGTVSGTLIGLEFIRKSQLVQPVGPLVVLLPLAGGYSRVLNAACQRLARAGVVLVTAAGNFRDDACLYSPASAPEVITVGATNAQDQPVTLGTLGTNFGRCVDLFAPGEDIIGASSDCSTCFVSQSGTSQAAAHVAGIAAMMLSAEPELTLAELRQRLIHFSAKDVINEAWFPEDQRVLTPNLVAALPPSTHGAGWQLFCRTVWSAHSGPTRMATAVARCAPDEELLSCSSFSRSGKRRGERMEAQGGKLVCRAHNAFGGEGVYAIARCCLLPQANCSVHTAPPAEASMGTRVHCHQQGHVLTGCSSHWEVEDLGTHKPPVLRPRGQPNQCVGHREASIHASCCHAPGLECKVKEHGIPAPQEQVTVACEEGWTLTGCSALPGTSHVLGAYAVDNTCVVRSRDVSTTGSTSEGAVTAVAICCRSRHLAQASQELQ

IC50: 1.4 nM | Maximum % inhibition: 49%
B1: Ac*-F-V-P-T-T-B-(N-Me)A-B-(N-Me)A-A-A-P-C*-NHEt (peptide)
peptide: {CH2CO}-FVPTT[Bip][NMeA][Bip][NMeA]AAPC-NHEt
modifications: thioether N-13
SMILES: CCNC(=O)[C@@H]1CSCC(=O)N[C@@H](Cc2ccccc2)C(=O)N[C@@H](C(C)C)C(=O)N2CCC[C@H]2C(=O)N[C@@H]([C@@H](C)O)C(=O)N[C@@H]([C@@H](C)O)C(=O)N[C@@H](Cc2ccc(-c3ccccc3)cc2)C(=O)N(C)[C@@H](C)C(=O)N[C@@H](Cc2ccc(-c3ccccc3)cc2)C(=O)N(C)[C@@H](C)C(=O)N[C@@H](C)C(=O)N[C@@H](C)C(=O)N2CCC[C@H]2C(=O)N1
notes: also called 3-4; Ex. No. 3-4
